Test results published in patent US6399321B1 (National Research Council of Canada, priority 1999, dated 2002).

B1: RNase B: bovine pancreatic ribonuclease B, glycoprotein acceptor substrate (protein, UniProt P61823 27-150, looked up)
Ribonuclease pancreatic: KETAAAKFERQHMDSSTSAASSSNYCNQMMKSRNLTKDRCKPVNTFVHESLADVQAVCSQKNVACKNGQTNCYQSYSTMSITDCRETGSSKYPNCAYKTTQANKHIIVACEGNPYVPVHFDASV
modifications: glycoform B
notes: bovine pancreatic ribonuclease B, glycoprotein acceptor substrate
B2: acid phosphatase: yeast acid phosphatase purified from S. cerevisiae DT111, with asparagine-linked [GlcNAc]2-(Man)9 glycans; UGGT acceptor substrate (protein)
chain: GTIPLGKLADVDKIGTQKDIFPFLGGAGPYYSFPGDYGISRDLPEGCEMKQLQMVGRHGERYPTVSLAKTIKSTWYKLSNYTRQFNGSLSFLNDDYEFFIRDDDDLEMETTFANSDDVLNPYTGEMNAKRHARDFLAQYGYMVENQTSFAVFTSNSKRCHDTAQYFIDGLGDQFNITLQTVSEAESAGANTLSACNSCPAWDYDANDDIVNEYDTTYLDDIAKRLNKENKGLNLTSTDASTLFSWCAFEVNAKGYSDVCDIFTKDELVHYSYYQDLHTYYHEGPGYDIIKSVGSNLFNASVKLLKQSEIQDQKVWLSFTHDTDILNFLTTAGIIDDKNNLTAEYVPFMGNTFHRSWYVPQGARVYTEKFQCSNDTYVRYVINDAVVPIETCSTGPGFSCEINDFYDYAEKRVAGTDFLKVCNVSSVSNSTELTFYWDWNTTHYNASLLRQ

Columns and labels:
acid phosphatase = assay: Glucosylation of purified acid phosphatase by wild-type and mutant RUGT; assay type: biochemical, Saccharomyces cerevisiae; conditions: purified acid phosphatase as substrate
Description: Based on sequence alignments with other nucleoside diphosphate glycosyltransferases, four independent RUGT mutants D1334A, D1336A, Q1429A and N1433A were designed, amplified by PCR, cloned and sequenced to confirm the presence of diagnostic PstI, BsrBI, XbaI and NaeI sites respectively (FIG. 8).
Acid phosphatase was the major substrate glycoprotein used to determine RUGT activity in this study. RNase B was prepared as described elsewhere (Zapun, 1998). Soybean agglutinin (Sigma) was denatured by heating at 100° C. for 15 minutes. Bovine thyroglobulin (Sigma) was denatured with 8M urea and dialyzed against ddH2O. […] Reactions were either analyzed by SDS-PAGE followed by fluorography using Amplify (Amersham Life Science Inc.) or precipitated with ice-cold 10% trichloroacetic acid (TCA), washed twice with TCA and the pellets resuspended in 50 μl 1M Tris-HCl pH 8.0 before counting in a beta counter to quantitate the incorporation of ^3H-glucose in acid phosphatase.

RUGT [1] = target: T1, RUGT (Rattus norvegicus, UniProt Q9JLA3); assay: Glucosyltransferase assay: incorporation of 3H-glucose in glycoprotein acceptor-substrates by RUGT; assay type: biochemical; conditions: for RUGT activity towards denatured versus native substrate: reduced unfolded, heat-treated or urea-treated versus native protein
T1 construct: honeybee melittin signal peptide (21 aa, replaces the first 18 aa of RUGT) (N, cleaved yes); made in house; host or cells: Sf9 insect cells, baculovirus (pFastBac1); purified from culture medium
Description: Acid phosphatase was the major substrate glycoprotein used to determine RUGT activity in this study. RNase B was prepared as described elsewhere (Zapun, 1998). Soybean agglutinin (Sigma) was denatured by heating at 100° C. for 15 minutes. Bovine thyroglobulin (Sigma) was denatured with 8M urea and dialyzed against ddH2O. […] Amersham Life Science Inc.) and incubated at 37° C. for 2 hours. Reactions were either analyzed by SDS-PAGE followed by fluorography using Amplify (Amersham Life Science Inc.) or precipitated with ice-cold 10% trichloroacetic acid (TCA), washed twice with TCA and the pellets resuspended in 50 μl 1M Tris-HCl pH 8.0 before counting in a beta counter to quantitate the incorporation of ^3H-glucose in acid phosphatase.

RUGT [2] = target: T1, RUGT; assay: Kinetics measurements: Km of UDP-glucose and acid phosphatase for RUGT; assay type: biochemical; conditions: in the presence of 5 μM UDP-glucose; read-out: apparent Km for acid phosphatase
Description: Acid phosphatase was the major substrate glycoprotein used to determine RUGT activity in this study. […] Soybean agglutinin (Sigma) was denatured by heating at 100° C. for 15 minutes. Bovine thyroglobulin (Sigma) was denatured with 8M urea and dialyzed against ddH2O. […] Reactions were either analyzed by SDS-PAGE followed by fluorography using Amplify (Amersham Life Science Inc.) or precipitated with ice-cold 10% trichloroacetic acid (TCA), washed twice with TCA and the pellets resuspended in 50 μl 1M Tris-HCl pH 8.0 before counting in a beta counter to quantitate the incorporation of ^3H-glucose in acid phosphatase.
Glucosylation reactions were incubated at 37° C. and TCA precipitated at various times up to 120 minutes to determine the rate of incorporation of ^3H-glucose in acid phosphatase.

T1 sequence (Q9JLA3 43-1547 limits assumed): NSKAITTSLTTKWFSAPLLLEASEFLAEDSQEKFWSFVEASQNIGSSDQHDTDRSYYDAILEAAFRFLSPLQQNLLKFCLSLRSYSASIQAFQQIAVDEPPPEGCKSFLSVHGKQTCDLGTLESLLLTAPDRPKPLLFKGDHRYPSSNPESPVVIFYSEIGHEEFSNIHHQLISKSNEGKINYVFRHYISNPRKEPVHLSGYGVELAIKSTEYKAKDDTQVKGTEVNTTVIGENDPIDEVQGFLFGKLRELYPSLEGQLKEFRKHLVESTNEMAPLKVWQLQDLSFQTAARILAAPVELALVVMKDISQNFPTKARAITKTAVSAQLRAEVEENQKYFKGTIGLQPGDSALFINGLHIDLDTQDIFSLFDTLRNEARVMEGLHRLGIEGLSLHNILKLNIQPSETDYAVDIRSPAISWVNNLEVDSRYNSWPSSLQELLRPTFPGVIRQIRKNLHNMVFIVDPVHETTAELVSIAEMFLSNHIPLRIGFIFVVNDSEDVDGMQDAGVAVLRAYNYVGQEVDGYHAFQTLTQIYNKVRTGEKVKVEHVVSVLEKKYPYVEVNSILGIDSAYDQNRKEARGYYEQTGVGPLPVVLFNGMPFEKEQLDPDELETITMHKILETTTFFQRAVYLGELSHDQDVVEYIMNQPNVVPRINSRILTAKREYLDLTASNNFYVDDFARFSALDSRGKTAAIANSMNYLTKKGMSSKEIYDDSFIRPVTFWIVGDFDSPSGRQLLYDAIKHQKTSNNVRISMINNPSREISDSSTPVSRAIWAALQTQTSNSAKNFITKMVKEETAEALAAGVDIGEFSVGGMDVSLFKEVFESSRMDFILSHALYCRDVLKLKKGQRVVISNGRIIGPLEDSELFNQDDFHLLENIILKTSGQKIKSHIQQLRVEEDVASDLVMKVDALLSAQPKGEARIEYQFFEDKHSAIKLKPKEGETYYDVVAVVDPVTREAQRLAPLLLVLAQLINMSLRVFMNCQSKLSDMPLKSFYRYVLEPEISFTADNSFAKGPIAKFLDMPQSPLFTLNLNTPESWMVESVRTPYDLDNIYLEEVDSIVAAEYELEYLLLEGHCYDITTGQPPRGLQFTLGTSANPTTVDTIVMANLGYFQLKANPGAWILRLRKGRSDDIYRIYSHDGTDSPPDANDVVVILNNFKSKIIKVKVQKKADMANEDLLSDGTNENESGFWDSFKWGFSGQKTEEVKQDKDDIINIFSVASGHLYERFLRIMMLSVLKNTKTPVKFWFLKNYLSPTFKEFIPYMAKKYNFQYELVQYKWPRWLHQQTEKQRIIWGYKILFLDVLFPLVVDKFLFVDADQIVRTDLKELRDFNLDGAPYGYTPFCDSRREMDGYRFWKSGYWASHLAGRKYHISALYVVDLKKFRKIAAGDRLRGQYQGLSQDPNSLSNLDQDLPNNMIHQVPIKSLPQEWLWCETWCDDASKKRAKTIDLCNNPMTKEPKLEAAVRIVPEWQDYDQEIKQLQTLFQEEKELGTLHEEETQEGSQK

Molecule	activity relative to the wild-type enzyme (incorporation of 3H-glucose) (acid phosphatase)	RUGT activity towards denatured versus native substrate (RUGT [1])	also measured
D1334A: recombinant rat UGGT (RUGT) mutant, D1334 mutated to alanine	no activity at all	–	–
D1336A: recombinant rat UGGT (RUGT) mutant, D1336 mutated to alanine	no activity at all	–	–
N1433A: recombinant rat UGGT (RUGT) mutant, N1433 mutated to alanine	approximately 2%	–	–
Q1429A: recombinant rat UGGT (RUGT) mutant, Q1429 mutated to alanine	~20%	–	–
bovine thyroglobulin: bovine thyroglobulin (Sigma), denatured with 8M urea; acceptor substrate [reference compound]	–	better substrates than the native proteins	–
soybean agglutinin: soybean agglutinin (Sigma), denatured by heating at 100° C.; acceptor substrate [reference compound]	–	better substrates than the native proteins	–
B1	–	greater activity towards reduced unfolded RNase B than towards the native protein	–
B2	–	–	incorporation of 3H-glucose on a molar basis relative to RNase B (RUGT [1]; assuming MW of 14 kDa for RNase B): 130 ×; incorporation of 3H-glucose on a molar basis relative to SBA (RUGT [1]; assuming MW of 31 kDa for SBA): 100 ×; incorporation of 3H-glucose on a molar basis relative to Tg (RUGT [1]; assuming MW of 303 kDa for Tg): 4 times; Km (RUGT [2]): 300 nM
